Article PMC12104086 (2025)

Experiments:
Test in all cases: SPR
[1] = biological target: recombinant human histone H3 (human, UniProt P68431 1-136)
[2] = biological target: T1, recombinant human alphavbeta3 integrin (human, UniProt P06756 31-1048; P05106 27-718)
T1 chain 1: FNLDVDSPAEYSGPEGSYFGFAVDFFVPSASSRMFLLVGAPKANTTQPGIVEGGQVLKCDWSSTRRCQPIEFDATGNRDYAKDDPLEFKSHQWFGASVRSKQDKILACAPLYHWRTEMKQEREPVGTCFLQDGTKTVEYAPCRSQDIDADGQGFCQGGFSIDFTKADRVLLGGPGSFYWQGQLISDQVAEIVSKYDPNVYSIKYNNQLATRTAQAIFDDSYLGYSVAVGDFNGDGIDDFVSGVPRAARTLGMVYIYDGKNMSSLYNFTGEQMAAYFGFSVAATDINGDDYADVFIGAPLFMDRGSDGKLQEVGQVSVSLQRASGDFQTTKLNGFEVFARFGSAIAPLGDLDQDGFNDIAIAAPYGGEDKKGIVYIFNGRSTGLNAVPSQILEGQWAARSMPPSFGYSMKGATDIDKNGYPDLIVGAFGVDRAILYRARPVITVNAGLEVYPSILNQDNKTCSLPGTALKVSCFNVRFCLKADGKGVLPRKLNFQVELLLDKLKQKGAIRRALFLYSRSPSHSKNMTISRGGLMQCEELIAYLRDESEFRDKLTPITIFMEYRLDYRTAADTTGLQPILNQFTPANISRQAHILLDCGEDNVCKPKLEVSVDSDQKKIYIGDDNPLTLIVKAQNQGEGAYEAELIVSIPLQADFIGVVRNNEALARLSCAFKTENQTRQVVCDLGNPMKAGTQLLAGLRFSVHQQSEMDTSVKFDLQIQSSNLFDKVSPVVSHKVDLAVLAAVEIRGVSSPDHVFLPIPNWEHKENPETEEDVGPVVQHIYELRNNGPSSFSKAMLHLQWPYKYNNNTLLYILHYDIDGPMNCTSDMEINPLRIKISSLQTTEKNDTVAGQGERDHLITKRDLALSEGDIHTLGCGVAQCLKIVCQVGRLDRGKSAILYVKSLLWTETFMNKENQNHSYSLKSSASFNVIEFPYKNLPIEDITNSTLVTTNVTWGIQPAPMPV
T1 chain 2: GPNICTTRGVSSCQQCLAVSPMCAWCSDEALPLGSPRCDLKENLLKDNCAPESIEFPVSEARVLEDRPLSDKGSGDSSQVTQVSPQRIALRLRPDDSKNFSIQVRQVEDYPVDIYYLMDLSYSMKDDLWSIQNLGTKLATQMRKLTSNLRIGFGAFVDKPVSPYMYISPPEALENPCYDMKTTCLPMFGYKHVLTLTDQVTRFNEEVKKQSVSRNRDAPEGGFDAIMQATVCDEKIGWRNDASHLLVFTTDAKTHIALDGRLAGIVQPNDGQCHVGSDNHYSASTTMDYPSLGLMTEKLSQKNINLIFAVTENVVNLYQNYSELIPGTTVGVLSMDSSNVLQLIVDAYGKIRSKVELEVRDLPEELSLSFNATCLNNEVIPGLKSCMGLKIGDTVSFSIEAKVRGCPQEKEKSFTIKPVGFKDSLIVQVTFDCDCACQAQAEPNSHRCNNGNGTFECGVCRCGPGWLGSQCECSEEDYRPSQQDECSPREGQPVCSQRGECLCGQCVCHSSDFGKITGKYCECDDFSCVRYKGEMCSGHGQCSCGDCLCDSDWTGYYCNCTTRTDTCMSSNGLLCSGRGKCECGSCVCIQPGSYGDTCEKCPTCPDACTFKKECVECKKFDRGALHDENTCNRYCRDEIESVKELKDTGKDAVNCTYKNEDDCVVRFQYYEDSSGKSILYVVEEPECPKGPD

[3] = biological target: T2, recombinant mouse cold-inducible RNA-binding protein (mouse, UniProt P60824 1-172)
T2 chain: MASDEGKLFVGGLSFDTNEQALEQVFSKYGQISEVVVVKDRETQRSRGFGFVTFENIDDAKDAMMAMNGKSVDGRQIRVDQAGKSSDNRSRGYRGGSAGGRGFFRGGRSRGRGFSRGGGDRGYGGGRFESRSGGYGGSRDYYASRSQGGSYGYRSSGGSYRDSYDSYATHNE

[4] = biological target: T3, recombinant human high mobility group box 1 (human, UniProt P09429 1-215)
T3 chain: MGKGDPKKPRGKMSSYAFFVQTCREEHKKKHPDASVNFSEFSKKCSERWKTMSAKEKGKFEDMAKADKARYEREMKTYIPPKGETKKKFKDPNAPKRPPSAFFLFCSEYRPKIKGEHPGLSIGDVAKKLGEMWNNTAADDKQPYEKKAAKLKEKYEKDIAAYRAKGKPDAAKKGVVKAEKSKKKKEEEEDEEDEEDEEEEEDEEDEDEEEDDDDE

- Kd [1]: 2.1 nM
- Kd [2]: 1.1 nM
- Kd [3]: 1.5 nM
- Kd [4]: 3.9 nM
Binder: GNFNSSNIMKTCLQNRGD [opsonic peptide 18]
